# Laboratory results reported in the supplement of paper PMC9170038.
# Test system: MS2 coat protein
# Test: apparent KD of MS2 coat protein; designed switch direction (-1 OFF switch, 1 ON switch): 1; higher = weaker reporter binding
# Procedure, shortened: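 Transcription of designed RNA switches on Illumina chips was done by stalled E. coli RNA polymerase. SNAP-549-labelled MS2 coat protein was then titrated in doubling steps from 0.7 or 1.5 nM to 3 µM, with steps of 0.8–1.5 h at the lowest and 10–20 min at the highest concentration. The per-design median over clusters of curve-fitted normalised fluorescence is reported as apparent KD.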
# [1] = input ligand: microRNA oligo, concentration not stated
# [2] = Eterna round: R95, input ligand: FMN 200 uM
# [3] = Eterna round: R95, input ligand: microRNA oligo, concentration not stated
# [4] = Eterna round: R95, input ligand: none
Sequence,apparent KD of MS2 coat protein (input ligand: FMN 200 uM) [µM],apparent KD of MS2 coat protein [1] [µM],apparent KD of MS2 coat protein (input ligand: none) [µM],apparent KD of MS2 coat protein [2] [µM],apparent KD of MS2 coat protein [3] [µM],apparent KD of MS2 coat protein [4] [µM]
"UGACACACGGCAGGAUAUCGAUUGCAAAGCAAUCGAGAAGGGCCUCAUGUCGUGGAAACGUGACAUGAGGAUCACCCAUGUUGC [Omei SS(NG)1 Cv14] (Eterna round: R96, puzzle: Same State NG 1)",0.178,0.0196,0.0329,–,–,–
"GCUACAUGAGGAUCACCCAUGUGUGCGUGGGAGUGAGUGGCUUAGGAUAUCUAUGACUUGAGUUGAGAGAAGGAGGGUUGCUGU [SS-NG3-LRO13] (Eterna round: R96, puzzle: Same State NG 3)",0.0709,0.0536,0.0793,–,–,–
"AUUAAUAAUCGAGGAUAUCACGUCGAUUAGACGUGAGAAGGCGAUCAUAACAUGAGGAUCACCCAUGUAUUACAUGAAGUUAAU [SSNG1/4-B2] (Eterna round: R96, puzzle: Same State NG 1)",0.0253,0.0237,0.0282,–,–,–
GUUAAACAUGAGGAUCACCCAUGUAAUAAUAUGGGAGGAUAUGGGAAUUAAUUAAUUAAACCAGAAGGCCUAAUUG [Mat - Same State 1 - D84] (puzzle: Same State 1),–,–,–,0.0253,0.142,0.189
"UGUUGUAUUACAGGAUAUCUAUUAUUUUUUUUUAGAGAAGGGUAUUCACAUGAGGAUCACCCAUGUAUAUACGAGGAAGUUGUG [JMF's solution 23] (Eterna round: R96, puzzle: Same State NG 1)",–,0.0455,–,–,–,–
"CUGAGCAAUCUAGGAUAUCACGUCGAUUAGACGUGAGAAGGAGAUCAUAACAUGAGGAUCACCCAUGUAUUACAUGAAGCUCAG [SSNG1/7-A2] (Eterna round: R96, puzzle: Same State NG 1)",0.0117,0.0138,0.0191,–,–,–
"UGUUGUAUUACAGGAUAUCUAUUAGUGUUAUUUAGAGAAGGGUAUUCACAUGAGGAUCACCCAUGUAUAUACGAGGAAGUUGUG [JMF's solution 90] (Eterna round: R96, puzzle: Same State NG 1)",0.0651,0.0374,0.0574,–,–,–
"AUGAAUUUGCGAGGAUAUCGUUUGUUGAAGUUACGAGAAGGCGCUCACUUUACAUGAGGAUCACCCAUGUUUAUGUUUUAUGAU [JR_SSNG1_Sub075] (Eterna round: R96, puzzle: Same State NG 1)",0.022,0.0216,0.0311,–,–,–
"AGUCCAGCCUGAGCUGGACAAAAGCAUGUACAUGAGGAUCACCCAUGUUCAUGUACAAGCUUUUUGCUCGUCGGAAU [Mat - hsa-mir-208a - Mod of JL - 49] (Eterna round: R96, puzzle: Sensor for hsa-mir-208a)",0.668,0.0166,0.654,–,–,–
GGAGGAUGAGCGUAGGAUAUAGGAGGAGUGACAUGAGGAUCACCCAUGUAGUAGGAGGGAAAGGGCUAGAAGGACGAGGAAGAGG [JR_SS2_Sub071] (puzzle: Same State 2),–,–,–,0.0561,0.0512,0.0702
"AACAAUCUAUCUGAGGAUAUCAUGAAAUAAACAUGAGGAUCACCCAUGUGCAGGAAAUCUGCAUAUGAGAAGGCAGAUAGAUUGA [salish99_ss2_r3_043] (Eterna round: R96, puzzle: Same State 2)",–,0.672,–,–,–,–
AUAAAACAUGAGGAUCACCCAUGUCAACAAAGUCGAGGAUAUGGGCAAAUAAAAUAAGAACCAGAAGGCGAAUAAG [salish99_SS1_r3_004] (puzzle: Same State 1),–,–,–,0.0307,0.088,0.266
"GUAAUAAAGGAAGGAUAUGGGUAAACGGGAAUCCCAGAAGGUCCACAUGAGGAUCACCCAUGUGGUCCCGAAACCACGGGACCG [Enbive] (Eterna round: R96, puzzle: Same State NG 1)",0.0842,0.0605,0.075,–,–,–
GGAGCUGGCACUGAGGAUAUUCAUAUUUAAACAUGAGGAUCACCCAUGUAGGCCAGAAGGCCUUGGGAGAAGGCAGGUCGGCUCG [salish99_ss2_r3_085] (puzzle: Same State 2),–,–,–,0.0246,0.254,0.354
"GCUAGAAAUAAUGCCAACAUGAGGAUCACCCAUGUAUGUUGGCAGGAUAUCGUUUGCUUUGCAAACGAGAAGGGCUAAACUAGC [Mat - Same State NG 3 - JL Mod - D7] (Eterna round: R96, puzzle: Same State NG 3)",0.28,0.296,0.28,–,–,–
"AUAGUUUCCGAAGGAUAUGAUGAGGAUCACCCAUCAGAAGGUUGGCUAUUGGGCUGACAUGAGGAUCACCCAUGUUCUGGAGUU (Eterna round: R96, puzzle: Same State NG 1)",0.0398,0.0395,0.0645,–,–,–

Sequence,apparent KD of MS2 coat protein (input ligand: FMN 200 uM) [µM],apparent KD of MS2 coat protein [1] [µM],apparent KD of MS2 coat protein (input ligand: none) [µM],apparent KD of MS2 coat protein [2] [µM],apparent KD of MS2 coat protein [3] [µM],apparent KD of MS2 coat protein [4] [µM]
AUCCUACAUGAGGAUCACCCAUGUGACGCCUCGAUAGGAUAUGCGUGUGCCUUGGCGCAUGCAGAAGGAUUGGAGC [JL Aveso mod 5] (puzzle: Same State 1),–,–,–,0.0884,0.0726,0.0785
"UCGGGCGUACUUGCUGACAUGAGGAUCACCCAUGUCCUUGGGCAGGAUAUGGUUCCGUUUCGGUUCCAGAAGGUCCUGGCUGCU [salish99_SSNG3_r04_318] (Eterna round: R96, puzzle: Same State NG 3)",0.0181,0.0244,0.0255,–,–,–
"UGGUACAUGGGAGGAUAUCUCAUGGAGACAUGAGGAUCACCCAUGUAGAUGGCCGGUAACCGGAGAGAGAAGGCCCAUGUACCU [JL SSNG1 3.67] (Eterna round: R96, puzzle: Same State NG 2)",0.0796,0.152,0.198,–,–,–
"GUGCGAGUGCCACAGGAUAUACGUGGAUCGACAUGAGGAUCACCCAUGUAUAUCCUAAUAAUUGCGUAGAAGGGUGGUCAGUCGG [Inzage] (Eterna round: R96, puzzle: Same State 2)",0.164,0.313,0.478,–,–,–
UUCUUACAUGAGGAUCACCCAUGUGUUGUCGUGGGAGGAUAUCCUUGUUCGGUGGCGUUGGGAGAAGGCCUAUGUU [× ×•×ª×• ×ž×“×™× ×” × ×—×ª-20] (puzzle: Same State 1),–,–,–,–,0.0404,–
"CUCAACAACACAGGAUAUCCAGGGAAAAGCCCUGGAGAAGGGUGACCAACAUGAGGAUCACCCAUGUGACGGCUAAACCGUCUG [Inususisre] (Eterna round: R96, puzzle: Same State NG 1)",0.319,0.509,0.0607,–,–,–
"GGUCCAUCAUGAGGAUAUGGCACCUUAUUGGUGCCAGAAGGCAUGUCUAUAGACAUGAGGAUCACCCAUGUUAUAAAUUGGACC [Eli NG1ss - 92] (Eterna round: R96, puzzle: Same State NG 1)",0.02,0.0986,0.111,–,–,–
AGGAAGGAGACUGAGGAUAUCGUUGAAAAGACAUGAGGAUCACCCAUGUGUAUAGGAUUGGAGAACGAGAAGGCAGAGGAGUGGA [JR_SS2_Sub044] (puzzle: Same State 2),–,–,–,0.0292,0.0333,0.0375
"AAUUAAGAUCAAGGAUAUCACGUCGAAUAGACGUGAGAAGGUGAUCAUAACAUGAGGAUCACCCAUGUAUUACAUGAAUUAAUU [SSNG1/2-B1] (Eterna round: R96, puzzle: Same State NG 1)",0.0713,0.177,0.289,–,–,–
"AAUACAAAUAGUCAGGAUAUCAAAAAUAAGACAUGAGGAUCACCCAUGUAAUAAGUAAAAGUAAAUGAGAAGGGACAGGGUGAAA [JR_SS002_Sub401] (Eterna round: R96, puzzle: Same State 2)",–,0.197,–,–,–,–
"AUUAUUAAUGCAGGAUAUGAUUAACAUGAGGAUCACCCAUGUGGUGUUGUGAGUAAGGAGAGUGAUCAGAAGGGCAUUUUUGUU [JMF's solution 14] (Eterna round: R96, puzzle: Same State NG 2)",0.811,0.33,0.629,–,–,–
GAAUUUGAACUACAGGAUAUAUAGCAGAUGACAUGAGGAUCACCCAUGUAAGAGAAAGGAGGGAAAUAGAAGGGUAUGGGAGGUG [JR_SS2_Sub034] (puzzle: Same State 2),–,–,–,0.0345,0.0329,0.0377
AGUCCAGAAUAAACUGGACAAAGACAUGUACAUGAGGAUCACCCAUGUCAUGUACAAGUUUUUUGCUCGUCUUAUAA (puzzle: Sensor for hsa-mir-208a),–,–,–,0.0399,0.0104,0.0372
AACAAUCUAUCUGAGGAUAUCAUGAAAUAAACAUGAGGAUCACCCAUGUGCAGGAAAUCUGCAUAUGAGAAGGCAGAUAGAUUGA [salish99_ss2_r3_043] (puzzle: Same State 2),–,–,–,0.0339,1.24,4.6
"GCAAAGGCGGUAGGAUAUCUAGGAUAUGGGAAAGACUAAGUCUGUAGGUCACCUAACCCAGAAGGAGAGAAGGACACCGAAAGG [pwkr ssNG2 2FMN + F9.25] (Eterna round: R96, puzzle: Same State NG 2)",0.617,0.00918,0.0737,–,–,–
"CCAACAUACAAUUUAAGAUCACAUGAGGAUCACCCAUGUAUGCAGGAUAUCAGCUCGUUUAGAGCUGAGAAGGGCAAUUUAAUU [SSNG3/1-A3] (Eterna round: R96, puzzle: Same State NG 3)",0.099,0.158,0.202,–,–,–
